Measured values: US20190002511A1

Assays:
[1] = target: human α-thrombin (recombinant) (human) (UniProt P00734); assay: assay not named
[2] = target: human α-thrombin (recombinant) (human) (UniProt P00734); assay: cell-based or functional assay

- Ki [1]: > 30 nM
- time to observe clot formation in blood tubes, 300 µM peptide [2]: 4 h
Substance: β-variegin (peptide)
